According to paper PMC6894463, “Improved spectrophotometric assay for lytic polysaccharide monooxygenase” (Biotechnology for Biofuels, 2019):

Substrate: COc1cc(-c2cc(OC)c(O)c(OC)c2)cc(OC)c1O
Test: purified protein
Format: biochemical, Neurospora crassa
Details: 100 µM H2O2 co-substrate, 50 mM sodium phosphate pH 6.0, apparent, no saturation reached

B1: NcLPMO9C (Neurospora crassa OR74A) (protein)
chain: HTIFQKVSVNGADQGQLKGIRAPANNNPVTDVMSSDIICNAVTMKDSNVLTVPAGAKVGHFWGHEIGGAAGPNDADNPIAASHKGPIMVYLAKVDNAATTGTSGLKWFKVAEAGLSNGKWAVDDLIANNGWSYFDMPTCIAPGQYLMRAELIALHNAGSQAGAQFYIGCAQINVTGGGSASPSNTVSFPGAYSASDPGILINIYGGSGKTDNGGKPYQIPGPALFTCPAGGSGGSSPAPATTASTPKPTSASAPKPVSTTASTPKPTNGSGSGTGAAHSTKCGGSKPAATTKASNPQPTNGGNSAVRAAALYGQCGGKGWTGPTSCASGTCKFSNDWYSQCLP
notes: full-length secreted enzyme, recombinant in Pichia pastoris X-33, purified
Question: Which Km does the source give for B1 here?
Answer: Its Km is 3.6 ± 0.5 mM.
